The subject of one series is O=C1C=CCCC1. The series can be described thus: purified protein, by the assay type. As to conditions: other: recombinant 2031 OR, 100 mM potassium phosphate buffer pH7.0; pH 7.0.
In a further series the test system is Recombinant 2031 OR. The series can be described thus: Oxidoreductase assay: NADPH oxidation monitored at 340 nm, 96-well. Type of series: biochemical, Aspergillus fumigatus. As to conditions: 500 μM substrate, 1 μg/200 μL 2031 OR, 120 μM NADPH. Here is the method:
The assay for 2031 OR is based on methods described by Abramovitz & Massey (1976, J. Biol. Chem. 251: 5321-5326) and Stott et al. (1993, J. Biol. Chem. 268: 6097-6106) and is based upon the ability of this enzyme to oxidise the pyridine nucleotides NADH and/or NADPH. […] Conversion of NAD(P)H to NAD(P)^+ can therefore be monitored spectrophotometrically at a wavelength of 340 nm. A similar assay can be employed for all oxidoreductases that use NADH or NADPH as a cofactor.
Assays were carried out in 96-well plates. To each well was added the following; Recombinant 2031 OR (10-1000 ng); 40 μl of 125-2500 μM NADPH; 1 μL 100 mM cyclohexeneone or other substrate, and the volume made up to 200 μL with 0.1 M potassium phosphate pH 7.0. Samples were incubated at room temperature and absorbance measurements were taken at 340 nm every 30 seconds for 10 min. The change in absorbance was expressed as nmoles NADPH oxidised, using the molar extinction coefficient of NADPH and NADH at 340 nm of 6270 (i.e., a 1M solution has an optical density of 6270 at this wavelength).
This is illustrated in FIG. 5. Final concentrations in the assay were as follows: 500 μM substrate, 1 μg/200 μL 2031 OR, 120 μM NADPH.

Procedure for O=C1C=CCCC1: Assay plates: Compounds to be tested were dissolved in 100% DMSO (polypropylene vessels), diluted in water and loaded into 384 square well polystyrene plates (10 μl/well). The final DMSO concentration in all assay wells was 5% v/v.
βNADPH (tetrasodium salt)/2-cyclohexen-1-one reagent; Solutions of NADPH (1.2917 mM in 100 mM potassium phosphate buffer, pH7.0) and 2-cyclohexen-1-one (10 mM in 100 mM potassium phosphate buffer, pH7.0) were prepared on the day of the assay and combined in a ratio of 1 part of 2-cyclohexen-1-one solution to 9 parts NADPH solution. Final assay well concentrations for NADPH and 2-cyclohexen-1-one were 465 μM and 400 μM respectively.
For the iscreen, protein was typically diluted to 5 to 11.25 μg/ml in 100 mM potassium phosphate buffer, pH7.0.
Stop reagent: 0.4 M NaOH in water.
To give an increased signal, the screen was carried out using 2-cyclohexen-1-one at 4 times Km. […]
Assays were carried out using Tecan Freedom, Tecan TeMo and PerkinElmer Minitrak robots together with a ThermoLabsystems multidrop 384 and a Tecan Safire automated plate reader. […] Plates were read at 340 nm on a Tecan Safire plate reader and data processed using ‘in-house’ created Excel spreadsheets to convert raw data into percent inhibition data. […]

“2031 OR enzyme (Aspergillus fumigatus Af293)”: the Michaelis-Menten constant (Km) in the series on O=C1C=CCCC1 was 100 µM.

For `O=C1C=CCCC1` [2-cyclohexen-1-one], in the series with Recombinant 2031 OR, the “Reduction of substrates by recombinant 2031 OR (substrate comparison, FIG. 5)” value is reported as “better substrate than menadione, duroquinone or N-ethylmaleimide”.

What is called Km is the concentration of substrate that gives half-maximal velocity.
